T1: Human long CD146 protein
T1 chain: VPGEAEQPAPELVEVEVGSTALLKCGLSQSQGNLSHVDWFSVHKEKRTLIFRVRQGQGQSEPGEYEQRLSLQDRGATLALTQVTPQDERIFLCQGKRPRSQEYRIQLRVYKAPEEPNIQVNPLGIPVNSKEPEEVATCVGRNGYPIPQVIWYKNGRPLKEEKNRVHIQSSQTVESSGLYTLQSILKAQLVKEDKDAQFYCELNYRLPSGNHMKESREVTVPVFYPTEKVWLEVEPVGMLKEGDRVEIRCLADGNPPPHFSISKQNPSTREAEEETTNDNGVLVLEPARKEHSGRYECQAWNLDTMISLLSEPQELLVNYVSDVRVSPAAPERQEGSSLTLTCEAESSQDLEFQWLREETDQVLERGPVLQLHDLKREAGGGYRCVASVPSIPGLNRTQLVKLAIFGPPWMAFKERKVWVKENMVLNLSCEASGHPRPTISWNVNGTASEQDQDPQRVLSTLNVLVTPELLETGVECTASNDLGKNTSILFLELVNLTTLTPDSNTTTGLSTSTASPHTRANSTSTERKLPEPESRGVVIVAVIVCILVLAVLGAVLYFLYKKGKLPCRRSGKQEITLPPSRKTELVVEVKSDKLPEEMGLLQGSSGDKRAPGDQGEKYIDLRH

T2: ADAM10 (UniProt O14672 214-748, limits assumed)
T2 construct: Endogenous protein of ECFC endothelial cells
T2 sequence (looked up): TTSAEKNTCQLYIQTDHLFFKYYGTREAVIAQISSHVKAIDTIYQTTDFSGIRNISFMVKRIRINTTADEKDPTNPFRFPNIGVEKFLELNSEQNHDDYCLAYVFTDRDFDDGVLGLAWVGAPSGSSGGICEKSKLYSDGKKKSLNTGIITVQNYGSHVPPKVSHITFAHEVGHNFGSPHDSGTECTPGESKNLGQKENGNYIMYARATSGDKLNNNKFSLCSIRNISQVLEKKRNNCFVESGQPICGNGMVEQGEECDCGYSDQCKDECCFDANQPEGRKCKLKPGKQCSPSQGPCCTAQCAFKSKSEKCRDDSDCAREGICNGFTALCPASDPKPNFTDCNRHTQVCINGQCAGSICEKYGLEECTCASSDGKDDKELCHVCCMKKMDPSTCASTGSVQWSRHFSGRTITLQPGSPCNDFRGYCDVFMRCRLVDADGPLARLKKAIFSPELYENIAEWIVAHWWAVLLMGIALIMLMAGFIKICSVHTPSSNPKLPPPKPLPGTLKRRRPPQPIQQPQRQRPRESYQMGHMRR

B1: ADAM10 (protein)
chain: T2 sequence (looked up)
B2: Human short CD146 protein (other)
chain: VPGEAEQPAPELVEVEVGSTALLKCGLSQSQGNLSHVDWFSVHKEKRTLIFRVRQGQGQSEPGEYEQRLSLQDRGATLALTQVTPQDERIFLCQGKRPRSQEYRIQLRVYKAPEEPNIQVNPLGIPVNSKEPEEVATCVGRNGYPIPQVIWYKNGRPLKEEKNRVHIQSSQTVESSGLYTLQSILKAQLVKEDKDAQFYCELNYRLPSGNHMKESREVTVPVFYPTEKVWLEVEPVGMLKEGDRVEIRCLADGNPPPHFSISKQNPSTREAEEETTNDNGVLVLEPARKEHSGRYECQAWNLDTMISLLSEPQELLVNYVSDVRVSPAAPERQEGSSLTLTCEAESSQDLEFQWLREETDQVLERGPVLQLHDLKREAGGGYRCVASVPSIPGLNRTQLVKLAIFGPPWMAFKERKVWVKENMVLNLSCEASGHPRPTISWNVNGTASEQDQDPQRVLSTLNVLVTPELLETGVECTASNDLGKNTSILFLELVNLTTLTPDSNTTTGLSTSTASPHTRANSTSTERKLPEPESRGVVIVAVIVCILVLAVLGAVLYFLYKKGKLPCRRSGKQEMERNTSI
notes: Endogenous membrane isoform in ECFC, detected by western blot in immunoprecipitates from cell lysates; also expressed from a plasmid in CHO cells; also called shCD146; short isoform of CD146

Experiments:
Human long CD146 protein = target: T1, Human long CD146 protein
ADAM10 = target: T2, ADAM10; assay: co-immunoprecipitation from ECFC in control condition (ADAM10 immunoprecipitated, CD146 isoforms detected by western blot)
Excerpt: C: ADAM10 was immunoprecipitated in ECFC cultured in basal condition (EBM2). The long (IgCD146) and short (shCD146) isoforms of CD146 were then detected by western blot using specific antibodies. Results are representative of 3 different experiments.

Binder	reduction of sCD146 secretion by ECFC under TNF after ADAM10 siRNA (Human long CD146 protein)	sCD146 secretion by ECFC in control condition after siRNA (Human long CD146 protein)	sCD146 secretion by a CHO clone stably expressing lgCD146 after transfection with an ADAM10 plasmid (Human long CD146 protein)	binding result (ADAM10)
B1	ADAM10 and Tace siRNA reduced sCD146 secretion by 60% and 25%, respectively	only ADAM10 siRNA was able to inhibit sCD146 secretion and that the effect was similar to that of GM6001	in the presence of ADAM10, sCD146 secretion was significantly increased	–
B2	–	–	–	no binding

— patent US20220003784A1 (ASSISTANCE PUBLIQUE H PITAUX DE MARSEILLE, published 2022)
